This series concerns the molecule itself. Briefly: negative-stain electron microscopy.

Data on 1 protein can be found in article doi:10.1101/467423 (bioRxiv, 2018).

B1: Plasmodium falciparum actin I K270M mutant (natural protein)
chain: not shown
Regarding B1, the binding result is “binds”.
